The record followed here is article PMC5531254, “MRE11 stability is regulated by CK2-dependent interaction with R2TP complex” (Oncogene, 2017).

Experiment [1] has as its target PIH1D1 (51-180) (UniProt Q9NWS0). Nature of the experiment: ITC; ~80 uM protein and ~800 uM peptide; performed in triplicate, means ± standard deviation; ITC as described previously. A general note: Isothermal titration calorimetry measures the heat released or taken up as one component is titrated into another.
Experiment [2] deals with PIH1D1 N-terminal PIH-N domain fragment (UniProt Q9NWS0). Nature of the experiment: ITC; MRE11 peptides with purified PIH1D1 PIH-N domain fragment, performed as described previously.
For experiment [3], the target named is T1, PIH1D1 (51-180) (UniProt Q9NWS0 51-180).
T1 construct: also called PIH1D1 N-terminal PIH-N domain fragment (aa 51-180); PIH-N; source: purified as described previously
Nature of the experiment: ITC; ~80 uM protein and ~800 uM peptide; performed in triplicate, means ± standard deviation; ITC as described previously. To be noted: both partners purified.

No end group written: not given here.

PIH1D1 (51-180) (UniProt Q9NWS0), sequence (Q9NWS0 51-180): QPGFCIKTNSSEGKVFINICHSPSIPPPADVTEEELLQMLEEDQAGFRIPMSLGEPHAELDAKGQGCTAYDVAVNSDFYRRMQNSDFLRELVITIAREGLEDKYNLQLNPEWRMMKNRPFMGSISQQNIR
T1 sequence (Q9NWS0 51-180): as above

In the experiment with PIH1D1 (51-180) [1], MRE11 pS558/pS561 peptide (ITC) registered a Kd of 26.1 µM and a stoichiometry N of 1.1.

In the case of MRE11 pS688/pS689 peptide (ITC), in the experiment with PIH1D1 (51-180) [1], the Kd is 40.9 µM and the stoichiometry N was 0.8.

In the case of “MRE11 DpSDD motif-containing peptide phosphorylated on serines 558 and 561”, in experiment [2], the Kd turned out to be 26 µM.

“MRE11 third acidic sequence peptide phosphorylated on serines 688 and 689” registered a Kd in experiment [2] of 41 µM.

B1: TEL2 pS491 peptide (peptide)
peptide: YSDLDSDDEFVPY
modifications: also: phosphoserine at 491 (TEL2 numbering), position in peptide not given here
notes: N-terminal tyrosine added for concentration determination; not part of TEL2; source: synthetic peptide
On to B1, for which, in the experiment with PIH1D1 (51-180) [3], the “stoichiometry N” value was found to be 1.3.

Broadly, the Kd is the equilibrium constant for the complex coming apart. A low value points to a tighter complex. One may read the stoichiometry N as a count of units in the complex or per binding partner.
